Assay results published in US6969760 (ST JUDE CHILDREN S RESEARCH HOSPITAL, dated 2005).

Legend:
Assay in all cases: pull-down from DA3(EPOR) cell extracts on GST-EPOR cytoplasmic domain beads, immunoblot
c-fes = c-fes (UniProt P16879 1-822)
Procedure: (§1) The fusion proteins were purified by affinity binding to glutathione-sepharose beads and the proteins, on affinity beads, were incubated with extracts of unstimulated or EPO stimulated DA3(EPOR) cells. The bound proteins were recovered from the beads, resolved on SDS-PAGE and the gels blotted to nitrocellulose. The blots were subsequently probed with antisera against various tyrosine kinases.

lyn = biological target: T1, lyn (UniProt P25911 2-512, limits assumed)
T1 construct: also called lyn kinase
T1 sequence (P25911 2-512 limits assumed): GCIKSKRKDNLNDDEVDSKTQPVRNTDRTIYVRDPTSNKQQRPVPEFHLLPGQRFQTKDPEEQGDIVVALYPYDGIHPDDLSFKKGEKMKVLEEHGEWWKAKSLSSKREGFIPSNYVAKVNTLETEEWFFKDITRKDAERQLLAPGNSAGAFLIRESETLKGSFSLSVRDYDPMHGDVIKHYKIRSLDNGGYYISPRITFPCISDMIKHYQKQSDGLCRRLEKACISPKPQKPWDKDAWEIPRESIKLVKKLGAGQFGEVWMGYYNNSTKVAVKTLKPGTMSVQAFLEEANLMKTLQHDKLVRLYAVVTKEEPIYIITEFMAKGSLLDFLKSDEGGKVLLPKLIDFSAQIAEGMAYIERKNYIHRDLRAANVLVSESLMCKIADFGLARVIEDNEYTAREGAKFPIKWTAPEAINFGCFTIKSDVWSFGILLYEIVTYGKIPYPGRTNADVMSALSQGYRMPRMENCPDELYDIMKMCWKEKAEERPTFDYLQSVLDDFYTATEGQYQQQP
Procedure: as §1

murine Tec = biological target: T2, murine Tec (murine, UniProt P24604 1-630, limits assumed)
T2 sequence (looked up): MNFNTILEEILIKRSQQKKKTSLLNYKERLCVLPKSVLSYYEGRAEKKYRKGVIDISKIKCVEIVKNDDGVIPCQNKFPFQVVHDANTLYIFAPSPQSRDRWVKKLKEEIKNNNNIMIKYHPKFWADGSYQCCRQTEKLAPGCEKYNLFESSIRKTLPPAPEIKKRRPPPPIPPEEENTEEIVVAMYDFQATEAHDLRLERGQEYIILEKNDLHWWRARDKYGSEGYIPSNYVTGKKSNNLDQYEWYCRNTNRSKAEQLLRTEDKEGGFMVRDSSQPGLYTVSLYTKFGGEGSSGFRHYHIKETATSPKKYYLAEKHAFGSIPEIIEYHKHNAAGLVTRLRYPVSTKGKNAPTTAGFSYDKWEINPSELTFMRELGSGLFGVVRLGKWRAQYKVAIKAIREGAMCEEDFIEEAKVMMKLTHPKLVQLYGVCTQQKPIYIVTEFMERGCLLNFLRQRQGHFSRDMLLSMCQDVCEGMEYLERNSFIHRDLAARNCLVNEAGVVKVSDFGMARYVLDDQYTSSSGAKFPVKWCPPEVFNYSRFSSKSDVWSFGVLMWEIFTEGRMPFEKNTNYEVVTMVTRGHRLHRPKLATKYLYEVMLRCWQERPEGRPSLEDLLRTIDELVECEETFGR
Procedure: as §1

Measured: binding result

Chain of c-fes (P16879 whole entry, the tested form may be a part): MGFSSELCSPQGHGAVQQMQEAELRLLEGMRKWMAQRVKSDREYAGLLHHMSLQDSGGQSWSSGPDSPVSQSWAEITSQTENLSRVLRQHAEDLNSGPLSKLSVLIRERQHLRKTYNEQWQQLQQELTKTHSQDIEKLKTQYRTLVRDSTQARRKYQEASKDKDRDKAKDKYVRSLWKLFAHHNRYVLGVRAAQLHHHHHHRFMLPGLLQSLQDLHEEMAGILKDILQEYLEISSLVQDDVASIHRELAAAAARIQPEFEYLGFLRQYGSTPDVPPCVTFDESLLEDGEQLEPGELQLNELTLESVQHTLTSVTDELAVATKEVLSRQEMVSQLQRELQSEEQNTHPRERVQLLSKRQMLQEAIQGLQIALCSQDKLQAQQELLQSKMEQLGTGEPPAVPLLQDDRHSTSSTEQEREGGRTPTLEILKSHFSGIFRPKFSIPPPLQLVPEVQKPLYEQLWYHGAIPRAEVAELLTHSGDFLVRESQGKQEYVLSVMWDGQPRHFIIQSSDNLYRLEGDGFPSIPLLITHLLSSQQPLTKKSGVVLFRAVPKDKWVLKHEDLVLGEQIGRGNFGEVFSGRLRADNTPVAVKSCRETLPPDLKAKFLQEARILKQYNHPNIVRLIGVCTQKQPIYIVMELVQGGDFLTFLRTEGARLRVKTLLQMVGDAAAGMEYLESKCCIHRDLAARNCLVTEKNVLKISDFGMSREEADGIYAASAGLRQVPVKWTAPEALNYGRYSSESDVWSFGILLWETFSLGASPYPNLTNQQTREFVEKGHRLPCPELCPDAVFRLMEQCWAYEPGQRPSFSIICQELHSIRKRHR

B1: GST fusion protein containing the full length murine EPOR cytoplasmic domain (amino acids 257-483) (other, UniProt P14753 281-507, looked up)
chain: IWPGIPSPESEFEGLFTTHKGNFQLWLLQRDGCLWWSPGSSFPEDPPAHLEVLSEPRWAVTQAGDPGADDEGPLLEPVGSEHAQDTYLVLDKWLLPRTPCSENLSGPGGSVDPVTMDEASETSSCPSDLASKPRPEGTSPSSFEYTILDPSSQLLCPRALPPELPPTPPHLKYLYLVVSDSGISTDYSSGGSQGVHGDSSDGPYSHPYENSLVPDSEPLHPGYVACS
notes: range 257-483; Expressed in E. coli and immobilised on glutathione-sepharose; also called GST-EPOR fusion protein; fusion protein containing the complete cytoplasmic domain; not shown: amino-terminal glutathione-S-transferase (GST) domain encoded by pGEX-2T
no binding: all assays above
